Assay results taken from patent US20090158448A1 (NATIONAL UNIVERSITY CORPORATION TOKYO MEDICAL AND DENTAL …, published 2009).
Residue numbers refer to the chain shown, from its start. Values belong to the binder of their own block, whether it stands above or below them.

How the values were obtained:
Experiment in all cases: co-immunoprecipitation (anti-myc) and western, 293T cells
[1] = biological target: T1, mutant MuSK (NA), myc tag (mouse, UniProt Q61006 22-868, limits assumed)
T1 construct: Mutation in the NPXY PTB domain target motif; also called NA mutant; not shown: myc tag
T1 sequence: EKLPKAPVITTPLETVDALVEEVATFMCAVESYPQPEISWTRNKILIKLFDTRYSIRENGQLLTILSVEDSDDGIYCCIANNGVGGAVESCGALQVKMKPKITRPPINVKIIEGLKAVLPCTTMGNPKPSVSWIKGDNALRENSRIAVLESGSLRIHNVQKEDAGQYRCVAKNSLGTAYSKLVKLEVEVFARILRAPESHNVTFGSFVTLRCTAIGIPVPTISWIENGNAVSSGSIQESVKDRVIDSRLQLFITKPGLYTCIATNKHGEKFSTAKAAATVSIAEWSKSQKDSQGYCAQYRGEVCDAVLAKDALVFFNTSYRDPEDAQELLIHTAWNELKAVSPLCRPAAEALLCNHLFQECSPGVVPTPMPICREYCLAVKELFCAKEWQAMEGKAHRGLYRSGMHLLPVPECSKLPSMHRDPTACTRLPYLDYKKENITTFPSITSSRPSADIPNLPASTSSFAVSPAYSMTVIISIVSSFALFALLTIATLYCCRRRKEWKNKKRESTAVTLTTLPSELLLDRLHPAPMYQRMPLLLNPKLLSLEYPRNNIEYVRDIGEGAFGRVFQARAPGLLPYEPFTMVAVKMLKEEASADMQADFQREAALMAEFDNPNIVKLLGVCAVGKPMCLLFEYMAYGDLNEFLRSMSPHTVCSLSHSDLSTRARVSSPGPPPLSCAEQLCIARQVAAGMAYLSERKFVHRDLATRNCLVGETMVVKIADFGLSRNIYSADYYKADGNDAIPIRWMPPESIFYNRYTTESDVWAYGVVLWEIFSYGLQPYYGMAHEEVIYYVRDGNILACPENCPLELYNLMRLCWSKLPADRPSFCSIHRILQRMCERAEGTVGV
Protocol: (§1) Immunoprecipitation of whole cell lysate (WCL) obtained from each transformed cell strain was carried out using an anti-myc tag antibody, and thus an immunoprecipitate (IP: αmyc) was obtained. Then, a western blot analysis was performed for the whole cell lysate and immunoprecipitate. The antibodies used were the same as the antibodies described above.
(§2) Then, immunoprecipitation of whole cell lysate (WCL) obtained from each transformed cell strain was carried out, and a western analysis was performed on the resulting immunoprecipitate (IP: αmyc). The antibodies used were the same as the antibodies described above.

[2] = biological target: T2, mutant MuSK (YF), myc tag (mouse, UniProt Q61006 22-868, limits assumed)
T2 construct: Mutation in the NPXY PTB domain target motif; also called YF mutant; not shown: myc tag
T2 sequence: T1 sequence with A529N, Y532F
Protocol: as §1, §2

[3] = biological target: T3, wild type (WT) mouse MuSK fused to myc tag (mouse, UniProt Q61006 22-868, limits assumed)
T3 construct: also called wild type MuSK (WT); muscle-specific tyrosine kinase; not shown: myc tag
T3 sequence: T1 sequence with A529N
Protocol: as §1, §2

binding result [1]: no binding
binding result [2]: no binding
B1: wild type human Dok-7 protein (other)
chain: MTEAALVEGQVKLRDGKKWKSRWLVLRKPSPVADCLLMLVYKDKSERIKGLRERSSLTLEDICGLEPGLPYEGLVHTLAIVCLSQAIMLGFDSHEAMCAWDARIRYALGEVHRFHVTVAPGTKLESGPATLHLCNDVLVLARDIPPAVTGQWKLSDLRRYGAVPSGFIFEGGTRCGYWAGVFFLSSAEGEQISFLFDCIVRGISPTKGPFGLRPVLPDPSPPGPSTVEERVAQEALETLQLEKRLSLLSHAGRPGSGGDDRSLSSSSSEASHLDVSASSRLTAWPEQSSSSASTSQEGPRPAAAQAAGEAMVGASRPPPKPLRPRQLQEVGRQSSSDSGIATGSHSSYSSSLSSYAGSSLDVWRATDELGSLLSLPAAGAPEPSLCTCLPGTVEYQVPTSLRAHYDTPRSLCLAPRDHSPPSQGSPGNSAARDSGGQTSAGCPSGWLGTRRRGLVMEAPQGSEATLPGPAPGEPWEAGGPHAGPPPAFFSACPVCGGLKVNPPP
notes: also called WT; polypeptide of the present invention

binding result [3]: no binding
B2: mutant Dok-7 (RA) (other)
chain: B1 chain with R158A, R159A, R174A
notes: also called RA of Dok-7
